Data on 83 variants can be found in the RNAGym collection of RNA variant scans (doi:10.1021/acssynbio.7b00057).

Sequences and labels used below:
B1: Pistol ribozyme (parent)
chain: GGGUCGUUGUUCCAUAAUCGCGUGGAUAUGGCACGCAAGUUUCUACCGGGCACCGUAAAUGUCCGACUGGAGCCGUUCGGGCGGCUAUAAACAGACCUCAGGCCCGAAGCGUGGCGGCACCUGCCGCCGGUGGUAAAAAAGAUCGGAAGAGCACACGUCU

Variants of B1 are the subject of the data set. The experiment in a line: aptazyme ON/OFF ratio, guanine; higher = stronger switching; co-transcriptional cleavage with and without guanine.
Regarding U7C U8G G9A U10G U11G C12A C13G, the “aptazyme ON/OFF ratio” value was determined as 1.24.
Then U7C U8G G9A U10G U11G C12A C13U, with 1.12; and U7C U8G G9A U10G U11G C12A C13A, with 1.11.
Then U7C U8G G9C U10G U11C C13U, with 1.07; and U7C U8G G9C U10G U11C C13G, with 1.05.
Then U7C U8G G9C U10G U11C C13A, with 1.25; and U7C U8G G9C U10G C12G C13G, with 1.12; and U7C U8G G9C U10G C12G C13A, with 1.18.
In the case of U7C U8G G9C U10G C12G C13U, the “aptazyme ON/OFF ratio” value came out at 1.13.
Then U7C U8G G9C C13A, with 1.06; and U7C U8G G9C C13G, with 1.04.
The figure for U7C U8G G9C C13U is 1.04; for U7C U8G G9C U10G U11A C13A it is 1.3.
Then U7C U8G G9C U10G U11A C13U, with 1.16; and U7C U8G G9C U10G U11A C13G, with 1.19; and U7C U8G G9A U11G C12G C13G, with 1.27.
Consider U7C U8G G9A U11G C12G C13A, for which the “aptazyme ON/OFF ratio” value turned out to be 1.16.
Then U7C U8G G9A U11G C12G C13U, with 1.18.
Turning to U7C U8G G9C U10A, the “aptazyme ON/OFF ratio” value amounted to 1.28.
Then U7C U8G G9C U10C, with 3.58; and U7C U8G G9C U10G, with 1.47; and U7C U8G G9C U10G U11G C12A C13A, with 1.15.
Then U7C U8G G9C U10G U11G C12A C13G, with 1.11; and U7C U8G G9C U10G U11G C12A C13U, with 1.14.
Then U7C U8G G9C U10G U11A C12A C13G, with 1.21; and U7C U8G G9C U10G U11A C12A C13U, with 1.23; and U7C U8G G9C U10G U11A C12A C13A, with 1.31.
As for U7C U8G G9C U10G U11A C12G C13A, the “aptazyme ON/OFF ratio” value was 1.24.
Then U7C U8G G9C U10G U11A C12G C13U, with 1.24; and U7C U8G G9C U10G U11A C12G C13G, with 1.21.
The figure for U7C U8G G9C U10A U11C C12U C13U is 1.09; for U7C U8G G9C U10A U11C C12U C13A it is 1.11.
The figure for U7C U8G G9C U10A U11C C12U C13G is 1.12; for U7C U8G G9C U10G C13G it is 1.2.
Turning to U7C U8G G9C U10G C13A, the “aptazyme ON/OFF ratio” value was determined as 1.25.
Take U7C U8G G9C U10G C13U: the “aptazyme ON/OFF ratio” value was found to be 1.47.
Then U7C U8G G9C U10A U11A C12U C13G, with 1.17; and U7C U8G G9C U10A U11A C12U C13U, with 1.24; and U7C U8G G9C U10A U11A C12U C13A, with 1.21.
The figure for U7C U8G G9C U10C U11G C12U C13A is 1.07.
For the variant U7C U8G G9C U10C U11G C12U C13G, the “aptazyme ON/OFF ratio” value came to 1.09.
The figure for U7C U8G G9C U10C U11G C12U C13U is 1.07; for U7C U8G G9C C12A it is 1.58.
Then U7C U8G G9C C12U, with 1.11.
Then U7C U8G G9C C12G, with 1.28; and U7C U8G G9A U11C C12A C13G, with 1.12.
Consider U7C U8G G9A U11C C12A C13A, for which the “aptazyme ON/OFF ratio” value was 1.1.
Take U7C U8G G9A U11C C12A C13U: the “aptazyme ON/OFF ratio” value came out at 1.14.
As for U7C U8G G9C U10A U11C C12A C13G, the “aptazyme ON/OFF ratio” value is 1.11.
Then U7C U8G G9C U10A U11C C12A C13A, with 1.19.
For U7C U8G G9C U10A U11C C12A C13U, the “aptazyme ON/OFF ratio” value is 1.17.
In the case of U7C U8G G9A U10G U11A C12G C13G, the “aptazyme ON/OFF ratio” value was determined as 1.24.
Then U7C U8G G9A U10G U11A C12G C13U, with 1.42; and U7C U8G G9A U10G U11A C12G C13A, with 1.26.
The figure for U7C U8G G9A U11A C13G is 1.07.
For U7C U8G G9A U11A C13A, the “aptazyme ON/OFF ratio” value is 1.2.
Then U7C U8G G9A U11A C13U, with 1.19; and U7C U8G G9C U10C U11A C12A, with 1.08.
The figure for U7C U8G G9C U10C U11A C12G is 1.07.
The figure for U7C U8G G9C U10C U11A C12U is 1.09.
For U7C U8G G9A U10G U11C C12U C13G, the “aptazyme ON/OFF ratio” value worked out at 1.25.
Then U7C U8G G9A U10G U11C C12U C13U, with 1.29; and U7C U8G G9A U10G U11C C12U C13A, with 1.34.
Take U7C U8G G9A U10G C12G C13U: the “aptazyme ON/OFF ratio” value turned out to be 1.17.
Then U7C U8G G9A U10G C12G C13G, with 1.1; and U7C U8G G9A U10G C12G C13A, with 1.25.
Turning to U7C U8G G9C U10C C12G C13U, the “aptazyme ON/OFF ratio” value was determined as 1.1.
Then U7C U8G G9C U10C C12G C13A, with 1.43.
The figure for U7C U8G G9C U10C C12G C13G is 1.09; for U7C U8G G9C U10A U11A C12G it is 1.14.
Then U7C U8G G9C U10A U11A C12A, with 1.22.
Consider U7C U8G G9C U10A U11A C12U, for which the “aptazyme ON/OFF ratio” value was 1.26.
The figure for U7C U8G G9C U10G U11C is 1.04; for U7C U8G G9C U10G U11A it is 1.07; for U7C U8G G9C U10G U11G it is 1.23.
U7C U8G G9A U10C U11G C13A: the “aptazyme ON/OFF ratio” value was determined as 1.28.
Then U7C U8G G9A U10C U11G C13G, with 1.12; and U7C U8G G9A U10C U11G C13U, with 1.41; and U7C U8G G9C U10C U11G C12A C13U, with 1.05.
Then U7C U8G G9C U10C U11G C12A C13A, with 1.12; and U7C U8G G9C U10C U11G C12A C13G, with 1.06; and U7C U8G G9A U10G U11C C12G, with 1.29.
Then U7C U8G G9A U10G U11C C12U, with 1.14.
